Results taken from the supplement of paper PMC10598134.
± gives the standard deviation.

Assay: collision cross section of modified peptide (TIMS, N2, iRT-aligned); higher = larger / more extended gas-phase ion
Protocol: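 1/K0 was aligned run-wise to spiked iRT peptides and converted to CCS in N2 (Mason-Schamp). Values are the mean of 1-3 technical replicates for the most abundant feature at each charge state.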

[1] = charge state: 2, modification: Citrullination (R)
[2] = charge state: 2, modification: HexNAc (ST)
[3] = charge state: 2, modification: Nitro (Y)
[4] = charge state: 2, modification: Methyl (R)
[5] = charge state: 2, modification: Phospho (Y)
[6] = charge state: 2, modification: Acetyl (K)
[7] = charge state: 2, modification: Biotin
[8] = charge state: 2, modification: Butyryl
[9] = charge state: 2, modification: Crotonyl
[10] = charge state: 2, modification: Dimethyl (K)
[11] = charge state: 3, modification: Dimethyl (K)
[12] = charge state: 2, modification: Formyl
[13] = charge state: 2, modification: Glutarylation
[14] = charge state: 2, modification: GlyGly (K)
[15] = charge state: 2, modification: Malonyl
[16] = charge state: 2, modification: Methyl (K)
[17] = charge state: 3, modification: Methyl (K)
[18] = charge state: 2, modification: Succinyl
[19] = charge state: 2, modification: Trimethyl (K)
[20] = charge state: 3, modification: Trimethyl (K)
[21] = charge state: 2, modification: hydroxyisobutyryl
[22] = charge state: 3, modification: Acetyl (K)
[23] = charge state: 3, modification: Butyryl
[24] = charge state: 3, modification: GlyGly (K)
[25] = charge state: 2, modification: Propionyl
[26] = charge state: 3, modification: Biotin

APPIDRSILPTAPR [_APPIDR(Citrullination (R))SILPTAPR_]
collision cross section [1]: 410.86 ± 0.21 Å²
collision cross section (charge state: 3, modification: Citrullination (R)): 480.52 ± 0.41 Å²

APPIDRSILPTAPR [_APPIDR(Methyl (R))SILPTAPR_]
collision cross section (charge state: 3, modification: Methyl (R)): 489.12 ± 2.5 Å²

APVGSVVSVPSQSSASSDK [_APVGSVVSVPSQS(HexNAc (ST))SASSDK_]
collision cross section [2]: 464.2 ± 0.14 Å²

AQLSQYFDAVK [_AQLSQY(Nitro (Y))FDAVK_]
collision cross section [3]: 386.8 ± 0.8 Å²

AQPQDSRGGSK [_AQPQDSR(Citrullination (R))GGSK_]
collision cross section [1]: 347.45 ± 0.9 Å²

AQPQDSRGGSK [_AQPQDSR(Methyl (R))GGSK_]
collision cross section [4]: 351.96 ± 2.1 Å²

AQPSASLGVGYR [_AQPSAS(HexNAc (ST))LGVGYR_]
collision cross section [2]: 394.91 ± 0.63 Å²

AQSYAQQLGR [_AQSY(Nitro (Y))AQQLGR_]
collision cross section [3]: 354.17 ± 0.17 Å²

AQSYAQQLGR [_AQSY(Phospho (Y))AQQLGR_]
collision cross section [5]: 354.7 ± 0.065 Å²

AQVLAGGRGK [_AQVLAGGR(Citrullination (R))GK_]
collision cross section [1]: 333.54 ± 0.75 Å²

AQVLAGGRGK [_AQVLAGGR(Methyl (R))GK_]
collision cross section [4]: 352.61 ± 7.6 Å²

ASAISIKLGSSK [_ASAISIK(Acetyl (K))LGSSK_]
collision cross section [6]: 368.59 ± 0.51 Å²

ASAISIKLGSSK [_ASAISIK(Biotin)LGSSK_]
collision cross section [7]: 410.18 ± 1.1 Å²

ASAISIKLGSSK [_ASAISIK(Butyryl)LGSSK_]
collision cross section [8]: 375.24 ± 1.9 Å²

ASAISIKLGSSK [_ASAISIK(Crotonyl)LGSSK_]
collision cross section [9]: 374.63 ± 0.89 Å²

ASAISIKLGSSK [_ASAISIK(Dimethyl (K))LGSSK_]
collision cross section [10]: 373.07 ± 0.36 Å²
collision cross section [11]: 447.62 Å²

ASAISIKLGSSK [_ASAISIK(Formyl)LGSSK_]
collision cross section [12]: 364.8 ± 0.89 Å²

ASAISIKLGSSK [_ASAISIK(Gluratylation)LGSSK_]
collision cross section [13]: 376.68 ± 0.1 Å²

ASAISIKLGSSK [_ASAISIK(GlyGly (K))LGSSK_]
collision cross section [14]: 390.99 ± 1 Å²

ASAISIKLGSSK [_ASAISIK(Malonyl)LGSSK_]
collision cross section [15]: 370.34 ± 0.77 Å²

ASAISIKLGSSK [_ASAISIK(Methyl (K))LGSSK_]
collision cross section [16]: 369.46 ± 0.48 Å²
collision cross section [17]: 438.5 ± 5.9 Å²

ASAISIKLGSSK [_ASAISIK(Succinyl)LGSSK_]
collision cross section [18]: 372.2 ± 0.24 Å²

ASAISIKLGSSK [_ASAISIK(Trimethyl (K))LGSSK_]
collision cross section [19]: 386.31 ± 1.1 Å²
collision cross section [20]: 448.52 ± 3.3 Å²

ASAISIKLGSSK [_ASAISIK(hydroxyisobutyryl)LGSSK_]
collision cross section [21]: 374.73 ± 0.8 Å²

ASCLYGQLPK [_ASCLY(Nitro (Y))GQLPK_]
collision cross section [3]: 365.43 ± 2.1 Å²

ASCLYGQLPK [_ASCLY(Phospho (Y))GQLPK_]
collision cross section [5]: 373.97 ± 0.65 Å²

ASDTSSETVFGKR [_ASDTSSETVFGK(Acetyl (K))R_]
collision cross section [6]: 397.17 ± 0.32 Å²
collision cross section [22]: 476.65 ± 0.87 Å²

ASDTSSETVFGKR [_ASDTSSETVFGK(Biotin)R_]
collision cross section [7]: 406.15 Å²

ASDTSSETVFGKR [_ASDTSSETVFGK(Butyryl)R_]
collision cross section [8]: 403.53 ± 0.74 Å²
collision cross section [23]: 479.86 ± 1.9 Å²

ASDTSSETVFGKR [_ASDTSSETVFGK(Crotonyl)R_]
collision cross section [9]: 402.93 ± 0.81 Å²
collision cross section (charge state: 3, modification: Crotonyl): 478.92 ± 1.3 Å²

ASDTSSETVFGKR [_ASDTSSETVFGK(Dimethyl (K))R_]
collision cross section [10]: 409.3 ± 1.1 Å²
collision cross section [11]: 469.84 ± 1.6 Å²

ASDTSSETVFGKR [_ASDTSSETVFGK(Formyl)R_]
collision cross section [12]: 390.61 ± 0.41 Å²

ASDTSSETVFGKR [_ASDTSSETVFGK(Gluratylation)R_]
collision cross section [13]: 400.66 ± 0.51 Å²
collision cross section (charge state: 3, modification: Glutarylation): 483.77 ± 1.7 Å²

ASDTSSETVFGKR [_ASDTSSETVFGK(GlyGly (K))R_]
collision cross section [14]: 414.9 ± 1.4 Å²
collision cross section [24]: 487.28 ± 2 Å²

ASDTSSETVFGKR [_ASDTSSETVFGK(Malonyl)R_]
collision cross section [15]: 387.3 ± 0.61 Å²

ASDTSSETVFGKR [_ASDTSSETVFGK(Methyl (K))R_]
collision cross section [16]: 406.57 ± 1.3 Å²
collision cross section [17]: 477.14 ± 3.8 Å²

ASDTSSETVFGKR [_ASDTSSETVFGK(Propionyl)R_]
collision cross section [25]: 398.28 ± 0.65 Å²
collision cross section (charge state: 3, modification: Propionyl): 481.99 Å²

ASDTSSETVFGKR [_ASDTSSETVFGK(Succinyl)R_]
collision cross section [18]: 396.57 ± 0.25 Å²
collision cross section (charge state: 3, modification: Succinyl): 482.91 ± 3.3 Å²

ASDTSSETVFGKR [_ASDTSSETVFGK(Trimethyl (K))R_]
collision cross section [19]: 414.52 ± 0.6 Å²
collision cross section [20]: 471.76 ± 2.7 Å²

ASDTSSETVFGKR [_ASDTSSETVFGK(hydroxyisobutyryl)R_]
collision cross section [21]: 403.06 ± 1.1 Å²
collision cross section (charge state: 3, modification: hydroxyisobutyryl): 485.06 ± 0.47 Å²

ASEALLKQLK [_ASEALLK(Acetyl (K))QLK_]
collision cross section [6]: 373.11 ± 0.4 Å²

ASEALLKQLK [_ASEALLK(Biotin)QLK_]
collision cross section [7]: 396.36 ± 2.2 Å²

ASEALLKQLK [_ASEALLK(Butyryl)QLK_]
collision cross section [8]: 379.45 ± 0.72 Å²

ASEALLKQLK [_ASEALLK(Crotonyl)QLK_]
collision cross section [9]: 379.57 ± 1.1 Å²

ASEALLKQLK [_ASEALLK(Dimethyl (K))QLK_]
collision cross section [10]: 366.02 ± 0.28 Å²
collision cross section [11]: 439.24 ± 2.8 Å²

ASEALLKQLK [_ASEALLK(Formyl)QLK_]
collision cross section [12]: 369.4 ± 0.89 Å²

ASEALLKQLK [_ASEALLK(Gluratylation)QLK_]
collision cross section [13]: 377.97 ± 0.1 Å²

ASEALLKQLK [_ASEALLK(GlyGly (K))QLK_]
collision cross section [14]: 378.14 ± 0.54 Å²
collision cross section [24]: 443.25 ± 0.74 Å²

ASEALLKQLK [_ASEALLK(Malonyl)QLK_]
collision cross section [15]: 374.73 ± 0.63 Å²

ASEALLKQLK [_ASEALLK(Methyl (K))QLK_]
collision cross section [16]: 369.33 ± 0.7 Å²
collision cross section [17]: 450.1 ± 3.1 Å²

ASEALLKQLK [_ASEALLK(Propionyl)QLK_]
collision cross section [25]: 375.9 ± 0.65 Å²

ASEALLKQLK [_ASEALLK(Succinyl)QLK_]
collision cross section [18]: 374.59 ± 0.24 Å²

ASEALLKQLK [_ASEALLK(Trimethyl (K))QLK_]
collision cross section [19]: 371.28 ± 0.027 Å²
collision cross section [20]: 439.12 ± 1.8 Å²

ASEALLKQLK [_ASEALLK(hydroxyisobutyryl)QLK_]
collision cross section [21]: 382.21 ± 0.28 Å²

ASNAAVKLAESK [_ASNAAVK(Acetyl (K))LAESK_]
collision cross section [6]: 371.36 ± 0.81 Å²

ASNAAVKLAESK [_ASNAAVK(Biotin)LAESK_]
collision cross section [7]: 402.96 ± 11 Å²
collision cross section [26]: 464.87 Å²

ASNAAVKLAESK [_ASNAAVK(Butyryl)LAESK_]
collision cross section [8]: 375.52 ± 1.2 Å²

ASNAAVKLAESK [_ASNAAVK(Crotonyl)LAESK_]
collision cross section [9]: 375.99 ± 0.26 Å²

ASNAAVKLAESK [_ASNAAVK(Dimethyl (K))LAESK_]
collision cross section [10]: 387.86 ± 0.56 Å²
collision cross section [11]: 452.98 ± 1.6 Å²

ASNAAVKLAESK [_ASNAAVK(Formyl)LAESK_]
collision cross section [12]: 365.07 ± 0.39 Å²

ASNAAVKLAESK [_ASNAAVK(Gluratylation)LAESK_]
collision cross section [13]: 379.86 ± 0.1 Å²

ASNAAVKLAESK [_ASNAAVK(GlyGly (K))LAESK_]
collision cross section [14]: 395.25 ± 1.5 Å²
collision cross section [24]: 457.62 ± 1.1 Å²

ASNAAVKLAESK [_ASNAAVK(Malonyl)LAESK_]
collision cross section [15]: 371.16 ± 0.62 Å²

ASNAAVKLAESK [_ASNAAVK(Methyl (K))LAESK_]
collision cross section [16]: 380.84 ± 0.65 Å²
collision cross section [17]: 450.44 ± 4.8 Å²

ASNAAVKLAESK [_ASNAAVK(Succinyl)LAESK_]
collision cross section [18]: 372.84 ± 0.87 Å²

ASNAAVKLAESK [_ASNAAVK(Trimethyl (K))LAESK_]
collision cross section [19]: 392.01 ± 0.62 Å²
collision cross section [20]: 456.46 ± 2.4 Å²

ASNAAVKLAESK [_ASNAAVK(hydroxyisobutyryl)LAESK_]
collision cross section [21]: 376.83 ± 0.8 Å²

ASPPLFQSR [_ASPPLFQS(HexNAc (ST))R_]
collision cross section [2]: 363.62 ± 0.64 Å²

ASTPGAAAQIQEVK [_AS(HexNAc (ST))TPGAAAQIQEVK_]
collision cross section [2]: 409.94 ± 0.76 Å²

ATAVVDGAFK [_AT(HexNAc (ST))AVVDGAFK_]
collision cross section [2]: 362.47 ± 0.64 Å²

ATVASSTQKFQDLGVK [_ATVASSTQK(Acetyl (K))FQDLGVK_]
collision cross section [6]: 445.22 ± 2.2 Å²
collision cross section [22]: 493.63 ± 0.33 Å²

ATVASSTQKFQDLGVK [_ATVASSTQK(Biotin)FQDLGVK_]
collision cross section [7]: 460.81 ± 1.3 Å²
collision cross section [26]: 516.43 ± 0.96 Å²

ATVASSTQKFQDLGVK [_ATVASSTQK(Butyryl)FQDLGVK_]
collision cross section [8]: 453.04 ± 1.1 Å²
collision cross section [23]: 495.56 ± 1.9 Å²
